Target: Mouse FGFR4/β-klotho complex co-expressed in L6 cells (mouse, UniProt Q03142 17-799; Q99N32 1-1043)
Assay: cell-based or functional assay

Chain of Mouse FGFR4/β-klotho complex co-expressed in L6 cells (Q03142 17-799, chain 1 of 2): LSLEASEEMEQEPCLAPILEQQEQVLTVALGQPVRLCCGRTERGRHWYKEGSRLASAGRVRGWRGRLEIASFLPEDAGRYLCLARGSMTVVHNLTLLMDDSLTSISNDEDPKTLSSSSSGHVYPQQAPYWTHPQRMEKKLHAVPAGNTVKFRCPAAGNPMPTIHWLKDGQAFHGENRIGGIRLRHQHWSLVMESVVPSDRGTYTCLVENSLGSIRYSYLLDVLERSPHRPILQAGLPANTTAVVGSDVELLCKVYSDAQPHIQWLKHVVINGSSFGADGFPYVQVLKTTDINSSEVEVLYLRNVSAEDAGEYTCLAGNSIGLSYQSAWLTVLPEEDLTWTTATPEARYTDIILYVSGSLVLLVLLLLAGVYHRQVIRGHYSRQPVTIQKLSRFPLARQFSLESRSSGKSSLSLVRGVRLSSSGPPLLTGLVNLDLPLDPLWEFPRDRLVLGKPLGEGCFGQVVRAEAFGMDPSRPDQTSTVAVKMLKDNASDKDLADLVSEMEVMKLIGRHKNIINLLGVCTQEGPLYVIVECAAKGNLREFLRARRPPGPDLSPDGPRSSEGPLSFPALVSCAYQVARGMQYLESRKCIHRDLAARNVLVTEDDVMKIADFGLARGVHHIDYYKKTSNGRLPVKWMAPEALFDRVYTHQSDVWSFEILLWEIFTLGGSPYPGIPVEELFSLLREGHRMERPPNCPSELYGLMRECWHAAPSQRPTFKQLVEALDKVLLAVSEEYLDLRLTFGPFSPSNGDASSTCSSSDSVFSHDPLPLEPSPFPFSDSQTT
Chain of Mouse FGFR4/β-klotho complex co-expressed in L6 cells (Q99N32 whole entry, chain 2 of 2): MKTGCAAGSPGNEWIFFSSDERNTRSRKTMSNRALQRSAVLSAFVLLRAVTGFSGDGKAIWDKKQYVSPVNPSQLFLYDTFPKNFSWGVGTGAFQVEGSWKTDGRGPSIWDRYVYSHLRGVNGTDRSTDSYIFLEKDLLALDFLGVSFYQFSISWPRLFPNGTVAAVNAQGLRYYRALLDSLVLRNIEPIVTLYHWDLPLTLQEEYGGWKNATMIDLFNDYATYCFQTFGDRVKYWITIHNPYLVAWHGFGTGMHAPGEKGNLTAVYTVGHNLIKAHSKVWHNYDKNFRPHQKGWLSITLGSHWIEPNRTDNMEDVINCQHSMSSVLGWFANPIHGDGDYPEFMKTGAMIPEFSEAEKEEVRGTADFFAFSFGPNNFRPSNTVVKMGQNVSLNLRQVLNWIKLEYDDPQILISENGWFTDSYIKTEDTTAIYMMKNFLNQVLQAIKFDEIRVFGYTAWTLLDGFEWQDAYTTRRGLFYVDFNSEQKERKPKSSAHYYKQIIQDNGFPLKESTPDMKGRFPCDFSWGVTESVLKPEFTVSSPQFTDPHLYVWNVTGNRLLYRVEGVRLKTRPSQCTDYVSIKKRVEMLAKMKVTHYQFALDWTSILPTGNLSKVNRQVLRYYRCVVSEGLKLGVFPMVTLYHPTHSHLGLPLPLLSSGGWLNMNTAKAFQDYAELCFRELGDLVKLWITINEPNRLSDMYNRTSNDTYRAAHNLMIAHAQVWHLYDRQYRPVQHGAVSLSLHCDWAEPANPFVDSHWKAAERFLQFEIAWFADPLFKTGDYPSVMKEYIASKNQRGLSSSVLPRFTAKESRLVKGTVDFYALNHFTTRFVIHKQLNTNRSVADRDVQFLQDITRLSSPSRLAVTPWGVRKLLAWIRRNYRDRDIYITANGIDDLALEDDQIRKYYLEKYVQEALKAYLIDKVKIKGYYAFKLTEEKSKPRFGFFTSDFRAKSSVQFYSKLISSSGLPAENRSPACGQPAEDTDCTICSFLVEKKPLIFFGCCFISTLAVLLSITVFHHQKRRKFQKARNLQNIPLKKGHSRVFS

B1: M70 (FGF19 variant) (ligand)
chain: MRDSSPLVHYGWGDPIRLRHLYTSGPHGLSSCFLRIRADGVVDCARGQSAHSLLEIKAVALRTVAIKGVHSVRYLCMGADGKMQGLLQYSEEDCAFEEEIRPDGYNVYRSEKHRLPVSLSSAKQRQLYKNRGFLPLSHFLPMLPMVPEEPEDLRGHLESDMFSSPLETDSMDPFGLVTGLEAVRSPSFEK
EC50 (pM), ELK1 luciferase reporter in L6 cells: 38.3 pM | Emax (fold potentiation), ELK1 luciferase reporter in L6 cells: 1.85 fold potentiation

Source: patent US20230226151A1 (NGM BIOPHARMACEUTICALS, published 2023)
